Source: paper PMC2814116

Target: Phaseolus coccineus PCNA1 (PcPCNA1), recombinant (Phaseolus coccineus)
Experiment: SEC

stoichiometry N: 3
Substance: Phaseolus coccineus PCNA1 (PcPCNA1), recombinant (natural protein)
